Consider 3 molecules from US20100168026A1, “INSULIN SECRETION INDUCER, AND ACCELERATOR FOR INCREASING THE NUMBER OF PANCREATIC BETA-CELLS” (priority 2007, published 2010).

The test system of experiment [1] is pancreatic β-cells. Nature of the experiment: Surface ratio of β-cells to α-cells in STZ mice administered synthetic polypeptides A-C. The experiment is classed as in vivo, C57BL/6 mouse. The conditions noted are these: STZ mouse, 25 nmol/kg body weight i.p. twice daily for eight weeks; vs saline; FIG. 8. How it is done: In the sixth embodiment, the action of synthetic polypeptides A-C on Type-1 diabetes STZ model mice was confirmed in the same manner as the third embodiment.
Firstly a 7-week old C57BL/6 mouse (body weight approximately 18-20 g) was fasted for 18 hours from day 0 and then streptozocin dissolved in saline (100 mg/kg body weight) was administered into the interperitoneal region and free feeding was immediately allowed. […] The serum blood-glucose level was measured on the seventh day. A fasting blood glucose level of greater than or equal to 150 mg/dL was determined as diabetes and the experiment described hereafter was conducted. STZ mice determined to have diabetes were administered into the interperitoneal region twice daily the polypeptide A-C (25 nmol/kg body weight) dissolved in saline for eight weeks from the seventh day.
The pancreas of the STZ mice was removed and after fixing the tissue with paraformaldehyde, the tissue sample preparation office at University of Tsukuba was employed to prepare a paraffin-embedded section. […] The section was thereafter mounted on a fluorescence photobleaching prevention agent (VECTASHILD Mounting Medium; Vector) and observed through a fluorescence microscope (BZ-8000; KEYENCE) to measure the surface ratio (β-cells/α-cells) of β-cells to α-cells. […]

Experiment [2] concerns type-2 diabetes model KK/Ay mouse. Nature of the experiment: Intravenous glucose tolerance test after adenoviral expression of mCF266 in KK/Ay mouse. The experiment is classed as in vivo. The note with it: adenoviral vector i.v. 6×10^9 PFU/mL, after four days, vs Ad GFP. The text has this:
In the second embodiment, an adenoviral vector expressing mCF266 was used to confirm the action of mCF266 with respect to a KK/Ay mouse which is a type-2 diabetes model mouse.
Firstly an adenoviral vector (prepared using ViraPower which is a tradename of Invitrogen) constructed by linking mCF266 to a CAG promoter was intravenously injected at a concentration of 6×10^9 PFU/mL into the caudal vein of a 18-week old KK/Ay mouse (body weight approximately 47-51 g) given a high-fat high-sucrose diet. After four days, an intravenous glucose tolerance test (i.v. GTT) was performed by periodically taking blood and measuring the blood-glucose level of the serum and the insulin level.
Consequently expression of mCF266 is shown to induce insulin secretion.

Experiment [3] concerns pancreatic β-cells. Kind of experiment: Surface area and number of β-cells (islets of Langerhans) in mCF266 transgenic mice. Type of experiment: in vivo, mouse. How it is done:
Firstly, an mCF266 expression vector (pCAGGS-mCF266) was constructed by linking mCF266 to a CAG promoter and linearized. The University of Tsukuba Laboratory Animal Resource Center was employed to produce a transgenic mouse. The introduced gene was confirmed using PCR and southern blotting and mating for five generations with C57BL/6 mice was conducted.
The pancreas of the transgenic mice was removed and after fixing the tissue with paraformaldehyde, the tissue sample preparation office at University of Tsukuba was employed to prepare a paraffin-embedded section. After the section was removed from paraffin, antigen activation was performed for 30 minutes at room temperature using 0.1% Triton X-100 and then blocking was performed for one hour at room temperature using 5% skim milk. After blocking, a primary antibody reaction was performed overnight at 4° C. using polyclonal anti-insulin guinea pig antibody (Daco) and polyclonal anti-glucagon rabbit antibody (Daco). The section was washed using Tris-buffered saline containing 0.1% Tween20 (TBST). […] The section was thereafter mounted on a fluorescence photobleaching prevention agent (VECTASHILD Mounting Medium; Vector) and observed through a fluorescence microscope (BZ-8000; KEYENCE) to measure the surface area of islets of Langerhans stained by insulin relative to the pancreas surface area on the section. […]

For experiment [4], the system named is MIN6 cells. Nature of the experiment: Glucose-stimulated insulin secretion (GSIS) in MIN6 cells stimulated with culture supernatant of CF266-transfected HEK293T cells. The note with it: culture supernatant of transfected HEK293T cells : KRBH buffer 1:1 (v/v), stimulated one hour, vs Mock, FIG. 2. The experiment is classed as cell-based, murine. On the procedure:
In Embodiment 1, an action was confirmed with respect to MIN6 cells using a culture supernatant of a HEK293T cell strain originating from fetal kidney epithelial cells transfected with CF266.
Firstly, HEK293T cells subcultured in DMEM media enriched with 5% FCS and an antibiotic (penicillin 100 U/mL, streptomycin […]) were plated onto a 10 cm dish at a concentration of 1×10^6 cells/dish. On the following day, HEK292T cells were transfected with an expression vector for mCF266 (pCAGGS-mCF266) using a FuGENE6 (Roche) and mCF266 was forcibly expressed. After 24 hours, the media was exchanged for Opti-MEM media and after a further 24 hours, a culture supernatant was recovered.
Next, MIN6 cells subcultured in DMEM media (high glucose, Invitrogen) enriched with 15% FCS, an antibiotic (penicillin 100 U/mL, streptomycin […]) and 2-mercaptoethanol were plated onto a 24-well plate at a concentration of 3×10^5 cells/well. On the following day, 0.5 mL/well KRBH buffer solution (2.8 mM glucose) was added and pre-culturing was conducted for 30 minutes. Then 0.5 mL/well of a mixed solution of the above culture supernatant and KRBH buffer solution (1:1(v/v)) was added and stimulated for one hour. Then glucose-stimulated insulin secretion (GSIS) was measured for the MIN6 cells. […]

Experiment [5] has as its system type-1 diabetes STZ model mouse. Kind of experiment: Oral glucose tolerance test after adenoviral expression of hCF266(27V) in STZ model mouse. The note with it: adenovirus i.v. 1×10^9 PFU/mL on day 7, OGTT on twelfth day, vs Ad GFP or Ad (−), FIG. 5. Type of experiment: in vivo, C57BL/6 mouse. On the procedure:
In the fourth embodiment, an adenoviral vector expressing hCF266(27V) was used to confirm the action of hCF266(27V) with respect to an STZ model mouse which is a type-1 diabetes model mouse.
Firstly a 7-week old C57BL/6 mouse (body weight approximately 18-20 g) was fasted for 18 hours from day 0 and then streptozocin dissolved in saline (100 mg/kg body weight) was administered into the interperitoneal region and free feeding was immediately allowed. From the following day, after fasted for 18 hours the same amount of streptozocin was re-administered on the second day into the interperitoneal region and free feeding was immediately allowed. The serum blood-glucose level was measured on the seventh day. A fasting blood glucose level of greater than or equal to 150 mg/dL was determined to be diabetes and the experiment described hereafter was conducted. On the same day, a recombinant adenovirus (prepared using ViraPower which is a tradename of Invitrogen) constructed by linking hCF266(27V) to a CAG promoter was intravenously injected at a concentration of 1×10^9 PFU/mL into the caudal vein of a STZ mouse determined to be suffering diabetes. On the twelfth day, an oral glucose tolerance test (OGTT) was performed by periodically taking blood and measuring the blood-glucose level of the serum and the insulin level. […]

The test system of experiment [6] is pancreatic β-cells. Nature of the experiment: Surface ratio of β-cells to α-cells in pancreas sections of STZ mice given hCF266(27V) adenovirus. Type of experiment: in vivo, C57BL/6 mouse. The conditions noted are these: STZ mouse, adenoviral expression; vs Ad GFP or Ad (−); FIG. 6. How it is done: Firstly a 7-week old C57BL/6 mouse (body weight approximately 18-20 g) was fasted for 18 hours from day 0 and then streptozocin dissolved in saline (100 mg/kg body weight) was administered into the interperitoneal region and free feeding was immediately allowed. From the following day, after fasted for 18 hours the same amount of streptozocin was re-administered on the second day into the interperitoneal region and free feeding was immediately allowed. The serum blood-glucose level was measured on the seventh day. A fasting blood glucose level of greater than or equal to 150 mg/dL was determined to be diabetes and the experiment described hereafter was conducted. On the same day, a recombinant adenovirus (prepared using ViraPower which is a tradename of Invitrogen) constructed by linking hCF266(27V) to a CAG promoter was intravenously injected at a concentration of 1×10^9 PFU/mL into the caudal vein of a STZ mouse determined to be suffering diabetes. On the twelfth day, an oral glucose tolerance test (OGTT) was performed by periodically taking blood and measuring the blood-glucose level of the serum and the insulin level.
The pancreas of the STZ mice was removed and after fixing the tissue with paraformaldehyde, the tissue sample preparation office at University of Tsukuba was employed to prepare a paraffin-embedded section. […]

Take “ALYCMLISIQALLKGPLMC (Human) [polypeptide A, 19 amino acid fragment, 98-116th amino acids of the hCF266(27V) polypeptide]”: the “surface ratio (β-cells/α-cells) β-cells to α-cells” value in experiment [1] is “excellent”.

B1: mCF266: Murine DNA SEQ. ID. No. 1 encoding membrane protein Tm4sf20; tested as transfected-cell supernatant, adenoviral vector and transgene (protein)
chain: MTCCEGWTSCNGFSLLILILLGVVINCIPLGISLVEADSTSQNPISCYEWWFPGIIGAGLMAIPATTMSLAARKRACCNNKTGMFLSSLFSVITVVGAVYCMLVSLQALLEGPLICNTQANSTVTCEFSLKNLSKFDPESFNLLWFFNGTCVSPTDFKNPTINNMVSNWKIPNSNSEEDRHRIFHFSVFMSLLLVGILELLFGLSQILIGFLGCLCGVSQRRSQIV
modifications: Mouse
notes: ID; No. 1 encoding membrane protein Tm4sf20; tested as transfected-cell supernatant, adenoviral vector and transgene
As to B1, the “blood-glucose level (i.v. GTT)” value in experiment [2] (FIG. 3A) is “only a slightly low tendency”. Moreover, the “insulin value (i.v. GTT)” value in experiment [2] (FIG. 3B) is “significantly higher”. In experiment [3] (transgenic mice hetero (+/−) or homo (+/+) vs wild-type (normalized to 1), FIG. 7B), the “number of β-cells” value is given as “conspicuously increased”. Besides, the “surface area of β-cells” value in experiment [3] (transgenic mice hetero (+/−) or homo (+/+) vs wild-type, FIG. 7A) is “conspicuously increased”.

B2: hCF266(27V): Human DNA SEQ. ID. No. 4 encoding TM4SF20, 27th amino acid valine; tested as transfected-cell supernatant and adenoviral vector (protein)
chain: MTCCEGWTSCNGFSLLVLLLLGVVLNVIPLIVSLVEEDQFSQNPISCFEWWFPGIIGAGLMAIPATTMSLTARKRACCNNRTGMFLSSLFSVITVIGALYCMLISIQALLKGPLMCNSPSNSNANCEFSLKNISDIHPESFNLQWFFNDSCAPPTGFNKPTSNDTMASGWRASSFHFDSEENKHRLIHFSVFLGLLLVGILEVLFGLSQIVIGFLGCLCGVSKRRSQIV
modifications: Human
notes: ID; No. 4 encoding TM4SF20, 27th amino acid valine; tested as transfected-cell supernatant and adenoviral vector
B2: the “glucose-stimulated insulin secretion (GSIS)” value in experiment [4] was “excellent action”. Moreover, the “blood glucose level (OGTT)” value in experiment [5] was “significantly reduced”. The “surface ratio (β-cells/α-cells) of β cells to α cells” value in experiment [6] is on record as “significantly increased”.
